The results in this text go back to publication PMC9604513, “De novo selected hACE2 mimics that integrate hotspot peptides with aptameric scaffolds for binding tolerance of SARS-CoV-2 variants” (Science Advances, 2022).

Series [1] concerns the target SARS-CoV-2 RBD wild type (SARS-CoV-2 (wild type)) (UniProt P0DTC2). The series can be described thus: flow cytometry bead binding. Particulars: 5'-hexynyl clicked to C-terminal azide of peptide LGKGDFR. (Flow cytometry measures light scatter and fluorescence of single cells or particles in a stream.)
The test system of series [2] is pseudotyped SARS-CoV-2. Type of series: cell-based, SARS-CoV-2 (human hACE2-293T cells).
The target in series [3] is RBD-hACE2 binding (Severe acute respiratory syndrome coronavirus 2, UniProt P0DTC2). The following applies: ELISA, 3 μM, n = 3 independent replicates. (In general: ELISA stands for enzyme-linked immunosorbent assay.)

On to “GGAAGAGATGGCGACCTCCACAACCGCTGATCGACGCAGATCTTGTGGGTAGCTGATCCTGATGG [R7-01 hybrid ligand (LGKGDFR-DNA)]”, for which the binding signal (RBD-binding fraction relative to R7-02) in series [1] worked out at 0.2. Still for that read-out and setting: the figure for “GGAAGAGATGGCGACCACACCAAATCTGAGTCTACCCCATGAAGGAGCTGATCCTGATGG [R7-03 hybrid ligand (LGKGDFR-DNA)]” is 0.125. On to LGKGDFR [LGKGDFR peptide], for which the “percentage of GFP-expressing infected cells over the total hACE2-293T cells” value in series [2] came out at 22.0%. Further, the “inhibition of RBD-hACE2 interaction” value in series [3] is listed as 11.69%.
